Reference: the supplement of paper PMC10567573

B1: CDC25A (parent)
chain: TVAGKHQDLKYISPEIMASVLNGK
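Note: lentivirally expressed fusions sorted by FACS into six bins by GFP to DsRed ratio, PSI derived from sequencing read proportions per bin multiplied by bin number.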

Variants of: B1
Test: protein stability index of a GFP-peptide fusion (GPS, HEK-293T) (PSI 1-6); higher = more stable
Conditions: c terminus: a fixed tail appended
For TVAGGHQDLKYISPEIMASVLNGK [K5G], the protein stability index was 3.6. In the case of TVAGHHQDLKYISPEIMASVLNGK [K5H], the protein stability index is reported as 3.54. Variant TVAGIHQDLKYISPEIMASVLNGK [K5I] has a protein stability index of 2.55. TVAGLHQDLKYISPEIMASVLNGK [K5L] showed a protein stability index of 3.06. Work on TVAGMHQDLKYISPEIMASVLNGK [K5M] yielded a protein stability index of 3.01. Work on TVAGNHQDLKYISPEIMASVLNGK [K5N] yielded a protein stability index of 3.07. TVAGPHQDLKYISPEIMASVLNGK [K5P] gave a protein stability index of 3.17. Variant TVAGQHQDLKYISPEIMASVLNGK [K5Q] has a protein stability index of 3.53. TVAGRHQDLKYISPEIMASVLNGK [K5R] gave a protein stability index of 3.2. With TVAGSHQDLKYISPEIMASVLNGK [K5S] the protein stability index was 3.5. Work on TVAGTHQDLKYISPEIMASVLNGK [K5T] yielded a protein stability index of 3.68. For TVAGVHQDLKYISPEIMASVLNGK [K5V], the protein stability index was 3.21. TVAGWHQDLKYISPEIMASVLNGK [K5W] gave a protein stability index of 2.75. Variant TVAGYHQDLKYISPEIMASVLNGK [K5Y] has a protein stability index of 3.03. In the case of TVAGKAQDLKYISPEIMASVLNGK [H6A], the protein stability index is reported as 3.73. In the case of TVAGKCQDLKYISPEIMASVLNGK [H6C], the protein stability index is reported as 2.57. In the case of TVAGKDQDLKYISPEIMASVLNGK [H6D], the protein stability index is reported as 3.92. Variant TVAGKEQDLKYISPEIMASVLNGK [H6E] has a protein stability index of 3.66. In the case of TVAGKFQDLKYISPEIMASVLNGK [H6F], the protein stability index is reported as 2.75. Work on TVAGKGQDLKYISPEIMASVLNGK [H6G] yielded a protein stability index of 3.06. In the case of TVAGKIQDLKYISPEIMASVLNGK [H6I], the protein stability index is reported as 2.63. With TVAGKKQDLKYISPEIMASVLNGK [H6K] the protein stability index was 3.27. TVAGKLQDLKYISPEIMASVLNGK [H6L] showed a protein stability index of 2.13. Work on TVAGKMQDLKYISPEIMASVLNGK [H6M] yielded a protein stability index of 2.26. TVAGKNQDLKYISPEIMASVLNGK [H6N] gave a protein stability index of 2.96. With TVAGKPQDLKYISPEIMASVLNGK [H6P] the protein stability index was 3.38. TVAGKQQDLKYISPEIMASVLNGK [H6Q] gave a protein stability index of 3.43. For TVAGKRQDLKYISPEIMASVLNGK [H6R], the protein stability index was 2.81. TVAGKSQDLKYISPEIMASVLNGK [H6S] showed a protein stability index of 2.94. In the case of TVAGKTQDLKYISPEIMASVLNGK [H6T], the protein stability index is reported as 3.24. For TVAGKVQDLKYISPEIMASVLNGK [H6V], the protein stability index was 2.45. For TVAGKWQDLKYISPEIMASVLNGK [H6W], the protein stability index was 2.24. Work on TVAGKYQDLKYISPEIMASVLNGK [H6Y] yielded a protein stability index of 3.25. TVAGKHADLKYISPEIMASVLNGK [Q7A] showed a protein stability index of 2.85. For TVAGKHCDLKYISPEIMASVLNGK [Q7C], the protein stability index was 2.79. TVAGKHDDLKYISPEIMASVLNGK [Q7D] showed a protein stability index of 3.06. For TVAGKHEDLKYISPEIMASVLNGK [Q7E], the protein stability index was 3.52. Work on TVAGKHFDLKYISPEIMASVLNGK [Q7F] yielded a protein stability index of 2.3. Variant TVAGKHGDLKYISPEIMASVLNGK [Q7G] has a protein stability index of 3.08. TVAGKHHDLKYISPEIMASVLNGK [Q7H] showed a protein stability index of 3.27. TVAGKHIDLKYISPEIMASVLNGK [Q7I] showed a protein stability index of 2.37. TVAGKHKDLKYISPEIMASVLNGK [Q7K] showed a protein stability index of 2.6. Work on TVAGKHLDLKYISPEIMASVLNGK [Q7L] yielded a protein stability index of 2.62. Variant TVAGKHMDLKYISPEIMASVLNGK [Q7M] has a protein stability index of 2.7. For TVAGKHNDLKYISPEIMASVLNGK [Q7N], the protein stability index was 2.46. Work on TVAGKHPDLKYISPEIMASVLNGK [Q7P] yielded a protein stability index of 3.24. With TVAGKHRDLKYISPEIMASVLNGK [Q7R] the protein stability index was 2.64. With TVAGKHSDLKYISPEIMASVLNGK [Q7S] the protein stability index was 3.16. TVAGKHTDLKYISPEIMASVLNGK [Q7T] showed a protein stability index of 2.69. With TVAGKHVDLKYISPEIMASVLNGK [Q7V] the protein stability index was 3.17. TVAGKHWDLKYISPEIMASVLNGK [Q7W] showed a protein stability index of 2.36. Work on TVAGKHYDLKYISPEIMASVLNGK [Q7Y] yielded a protein stability index of 2.49. TVAGKHQALKYISPEIMASVLNGK [D8A] showed a protein stability index of 2.65. Variant TVAGKHQCLKYISPEIMASVLNGK [D8C] has a protein stability index of 2.32. TVAGKHQELKYISPEIMASVLNGK [D8E] showed a protein stability index of 3.21. TVAGKHQFLKYISPEIMASVLNGK [D8F] showed a protein stability index of 1.87. Work on TVAGKHQGLKYISPEIMASVLNGK [D8G] yielded a protein stability index of 3.06. In the case of TVAGKHQHLKYISPEIMASVLNGK [D8H], the protein stability index is reported as 2.51. Variant TVAGKHQILKYISPEIMASVLNGK [D8I] has a protein stability index of 2.35. For TVAGKHQKLKYISPEIMASVLNGK [D8K], the protein stability index was 2.54. Variant TVAGKHQLLKYISPEIMASVLNGK [D8L] has a protein stability index of 2.05. Work on TVAGKHQMLKYISPEIMASVLNGK [D8M] yielded a protein stability index of 2.25. Work on TVAGKHQNLKYISPEIMASVLNGK [D8N] yielded a protein stability index of 2.62. TVAGKHQPLKYISPEIMASVLNGK [D8P] showed a protein stability index of 2.91. In the case of TVAGKHQQLKYISPEIMASVLNGK [D8Q], the protein stability index is reported as 2.5. Work on TVAGKHQRLKYISPEIMASVLNGK [D8R] yielded a protein stability index of 2.28. TVAGKHQSLKYISPEIMASVLNGK [D8S] showed a protein stability index of 2.63. With TVAGKHQTLKYISPEIMASVLNGK [D8T] the protein stability index was 2.56. For TVAGKHQVLKYISPEIMASVLNGK [D8V], the protein stability index was 2.66. In the case of TVAGKHQWLKYISPEIMASVLNGK [D8W], the protein stability index is reported as 1.68. With TVAGKHQYLKYISPEIMASVLNGK [D8Y] the protein stability index was 1.9. TVAGKHQDAKYISPEIMASVLNGK [L9A] showed a protein stability index of 3.44. Work on TVAGKHQDCKYISPEIMASVLNGK [L9C] yielded a protein stability index of 3.13. Work on TVAGKHQDDKYISPEIMASVLNGK [L9D] yielded a protein stability index of 4.09. TVAGKHQDEKYISPEIMASVLNGK [L9E] showed a protein stability index of 3.94. In the case of TVAGKHQDFKYISPEIMASVLNGK [L9F], the protein stability index is reported as 3.1. TVAGKHQDGKYISPEIMASVLNGK [L9G] gave a protein stability index of 3.77. For TVAGKHQDHKYISPEIMASVLNGK [L9H], the protein stability index was 3.65. TVAGKHQDIKYISPEIMASVLNGK [L9I] showed a protein stability index of 3.25. Work on TVAGKHQDKKYISPEIMASVLNGK [L9K] yielded a protein stability index of 3.74. TVAGKHQDMKYISPEIMASVLNGK [L9M] showed a protein stability index of 3.29. In the case of TVAGKHQDNKYISPEIMASVLNGK [L9N], the protein stability index is reported as 3.72. TVAGKHQDPKYISPEIMASVLNGK [L9P] gave a protein stability index of 3.37. TVAGKHQDQKYISPEIMASVLNGK [L9Q] gave a protein stability index of 3.71. TVAGKHQDRKYISPEIMASVLNGK [L9R] gave a protein stability index of 3.51. TVAGKHQDSKYISPEIMASVLNGK [L9S] showed a protein stability index of 3.33. With TVAGKHQDTKYISPEIMASVLNGK [L9T] the protein stability index was 3.47. With TVAGKHQDVKYISPEIMASVLNGK [L9V] the protein stability index was 3.27. For TVAGKHQDWKYISPEIMASVLNGK [L9W], the protein stability index was 2.81. Variant TVAGKHQDYKYISPEIMASVLNGK [L9Y] has a protein stability index of 3.08. For TVAGKHQDLAYISPEIMASVLNGK [K10A], the protein stability index was 2.99. Variant TVAGKHQDLCYISPEIMASVLNGK [K10C] has a protein stability index of 2.52. TVAGKHQDLDYISPEIMASVLNGK [K10D] gave a protein stability index of 3.85. Variant TVAGKHQDLEYISPEIMASVLNGK [K10E] has a protein stability index of 3.42.
